Source: patent US20100150931A1 (CENTRE HOSPITALIER DE L UNIVERSITE DE MONTREAL, published 2010)
Residue numbers refer to the chain shown, from its start. Names may count otherwise. Blank lines part the entries; values can stand above or below the binder they belong to.

Tests used:
CD40 on BJAB B cells = biological target: T1, CD40 on BJAB B cells (human, UniProt P25942 21-277); test: flow cytometry, competition with sCD40L-Alexa on BJAB cells
T1 construct: whole, on cells; also called CD40-positive human BJAB B cell line
T1 sequence (P25942 21-277): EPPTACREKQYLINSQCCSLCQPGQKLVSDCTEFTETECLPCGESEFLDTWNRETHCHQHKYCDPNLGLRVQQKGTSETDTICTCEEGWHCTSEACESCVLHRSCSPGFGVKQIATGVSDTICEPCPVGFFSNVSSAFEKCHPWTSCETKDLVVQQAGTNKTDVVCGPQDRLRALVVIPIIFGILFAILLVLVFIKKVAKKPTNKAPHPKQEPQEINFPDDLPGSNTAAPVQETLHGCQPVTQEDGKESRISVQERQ

[1] = biological target: T2, α5β1 integrin on cells (U937 and other CD40-negative cell lines) (human, UniProt P08648 42-1049; P05556 21-798); test: flow cytometry, competition with sCD40L-Alexa on U937 cells
T2 construct: whole, on cells; U937 cells are CD40-negative; also called VLA-5; CD49e/CD29
T2 sequence (P08648 42-1049, chain 1 of 2): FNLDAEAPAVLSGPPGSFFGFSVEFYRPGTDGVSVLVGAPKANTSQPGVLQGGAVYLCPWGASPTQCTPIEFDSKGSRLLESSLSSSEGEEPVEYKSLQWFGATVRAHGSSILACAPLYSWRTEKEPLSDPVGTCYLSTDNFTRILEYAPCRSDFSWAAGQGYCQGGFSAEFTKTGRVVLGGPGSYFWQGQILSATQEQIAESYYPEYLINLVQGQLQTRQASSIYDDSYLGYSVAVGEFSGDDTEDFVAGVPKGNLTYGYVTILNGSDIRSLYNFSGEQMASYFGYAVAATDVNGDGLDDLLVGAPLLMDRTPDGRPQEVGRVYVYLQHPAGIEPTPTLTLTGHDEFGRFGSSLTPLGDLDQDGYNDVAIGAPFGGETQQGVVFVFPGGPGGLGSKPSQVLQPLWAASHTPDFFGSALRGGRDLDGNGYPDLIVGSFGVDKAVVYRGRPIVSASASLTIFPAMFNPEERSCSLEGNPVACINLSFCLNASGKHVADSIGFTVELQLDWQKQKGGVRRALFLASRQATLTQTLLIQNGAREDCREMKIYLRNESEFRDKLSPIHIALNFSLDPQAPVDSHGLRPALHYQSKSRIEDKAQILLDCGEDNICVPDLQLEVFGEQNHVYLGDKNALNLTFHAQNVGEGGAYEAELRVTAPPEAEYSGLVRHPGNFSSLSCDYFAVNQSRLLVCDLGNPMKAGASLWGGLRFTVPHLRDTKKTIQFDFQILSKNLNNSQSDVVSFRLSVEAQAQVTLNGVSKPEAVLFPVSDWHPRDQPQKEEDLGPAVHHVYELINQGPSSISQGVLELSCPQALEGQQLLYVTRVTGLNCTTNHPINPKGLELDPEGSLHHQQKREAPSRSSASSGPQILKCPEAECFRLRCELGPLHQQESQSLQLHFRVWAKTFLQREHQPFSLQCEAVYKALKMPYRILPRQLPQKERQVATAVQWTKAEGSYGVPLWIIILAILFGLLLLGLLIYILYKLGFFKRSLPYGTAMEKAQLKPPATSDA
T2 sequence (P05556 21-798, chain 2 of 2): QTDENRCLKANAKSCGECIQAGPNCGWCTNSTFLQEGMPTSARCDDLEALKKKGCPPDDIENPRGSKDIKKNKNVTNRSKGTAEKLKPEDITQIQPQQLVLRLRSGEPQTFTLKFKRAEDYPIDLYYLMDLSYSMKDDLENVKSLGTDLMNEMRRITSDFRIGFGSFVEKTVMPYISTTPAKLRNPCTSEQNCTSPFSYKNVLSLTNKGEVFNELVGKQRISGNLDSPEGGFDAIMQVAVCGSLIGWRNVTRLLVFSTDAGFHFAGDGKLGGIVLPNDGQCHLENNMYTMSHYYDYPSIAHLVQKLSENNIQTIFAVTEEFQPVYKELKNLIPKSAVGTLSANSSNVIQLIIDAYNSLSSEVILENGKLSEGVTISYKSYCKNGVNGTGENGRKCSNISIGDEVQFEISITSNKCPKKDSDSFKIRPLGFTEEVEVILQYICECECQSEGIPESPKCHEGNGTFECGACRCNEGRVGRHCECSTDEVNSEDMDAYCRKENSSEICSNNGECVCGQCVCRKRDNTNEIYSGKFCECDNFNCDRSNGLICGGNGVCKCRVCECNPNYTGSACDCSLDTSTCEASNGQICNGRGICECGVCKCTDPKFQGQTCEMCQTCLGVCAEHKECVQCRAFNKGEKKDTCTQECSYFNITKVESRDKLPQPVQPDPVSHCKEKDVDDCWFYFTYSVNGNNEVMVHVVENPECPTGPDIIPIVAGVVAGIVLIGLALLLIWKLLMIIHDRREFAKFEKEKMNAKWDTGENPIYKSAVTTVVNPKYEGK

[2] = biological target: T2, α5β1 integrin on cells (U937 and other …); test: cell-based or functional assay

- binding result (CD40 on BJAB B cells): binds
- binding result [1]: binds
B1: CD40L Y170A (monomeric soluble human CD40L mutant) (ligand)
chain: MQKGDQNPQIAAHVISEASSKTTSVLQWAEKGYYTMSNNLVTLENGKQLTVKRQGLYAIYAQVTFCSNREASSQAPFIASLCLKSPGRFERILLRAANTHSSAKPCGQQSIHLGGVFELQPGASVFVNVTDPSQVSHGTGFTSFGLLKL
notes: Made in Drosophila S2 cells from the soluble human CD40L construct M113 to L261 with Y170 changed to alanine; Numbering of Y170 is that of full-length human CD40L; also called hsCD40LY170A; hCD40L mutated in its Y170 residue; not shown: C-terminal V5 / hexahistidine tag from the pMT-BiP/V5-His A vector

- binding result (CD40 on BJAB B cells): binds
- binding result [1]: binds
B2: CD40L G227A (monomeric soluble human CD40L mutant) (ligand)
chain: B1 chain with A58Y, G115A
notes: Made in Drosophila S2 cells from the soluble human CD40L construct M113 to L261 with G227 changed to alanine; also called hCD40L mutated in its G227 residue; not shown: C-terminal V5 / hexahistidine tag from the pMT-BiP/V5-His A vector

- IL-8 mRNA expression (RT-PCR, U937 cells) [2]: 2.5 fold increase
B3: Recombinant trimeric soluble CD40L (ligand, UniProt P29965 51-261, looked up)
chain: DKIEDERNLHEDFVFMKTIQRCNTGERSLSLLNCEEIKSQFEGFVKDIMLNKEETKKENSFEMQKGDQNPQIAAHVISEASSKTTSVLQWAEKGYYTMSNNLVTLENGKQLTVKRQGLYYIYAQVTFCSNREASSQAPFIASLCLKSPGRFERILLRAANTHSSAKPCGQQSIHLGGVFELQPGASVFVNVTDPSQVSHGTGFTSFGLLKL
modifications: Alexa Fluor-488 label in the form called rsCD40L-A; unlabelled in the solid phase assay and in cell stimulation
